Reference: patent US20240101667A1 (University of Texas, published 2024)

How the values were obtained:
[1] = target: T1, recombinant LILRB3 (human LILRB3 extracellular domain protein) (human, UniProt O75022 24-443); assay: Octet (BLI), antibody on protein A biosensors, recombinant LILRB3 in solution
T1 construct: extracellular domain; The panning method names the 'human LILRB3 extracellular domain protein'; The Octet method says only 'recombinant LILRB3', and the antigen of the ELISA is not described; also called LILRB3-ECD
Experimental: Affinity measurement and epitope binning: Affinity measurement and epitope binning were done as described previously (Gui et al., 2019). Briefly, antibody affinity was analyzed with the Octet RED96 instrument. […] ForteBio's data analysis software was used to extract association and dissociation rates assuming a 1:1 binding model. The Kd was calculated as the ratio koff/kₒₙ. […] In these epitope binning assays, primary antibodies (40 μg/ml) were loaded onto protein A biosensors, and remaining Fc-binding sites on the sensor were blocked with a human non-targeting IgG (200 μg/ml). […] Raw data were processed using ForteBio's Data Analysis Software 7.0. Antibody pairs were assessed for competitive binding.

[2] = target: T2, LILRB3 with amino acids 509-511 mutated from QEE to AAA (human, UniProt O75022 24-631); assay: co-immunoprecipitation in 293T cells
T2 construct: also called B3 AAA mutant; not shown: hFc tag, per the general co-immunoprecipitation method
Text: (§1) Western blotting and co-immunoprecipitation. Cells were lysed with RIPA buffer containing protease inhibitor (Roche Diagnostic). Samples were mixed with 2×SDS loading buffer and separated by SDS-PAGE. After transfer to nitrocellulose membranes, the protein was detected with specific primary antibodies and HRP-conjugated secondary antibodies. […] For immunoprecipitation, cells were lysed with Pierce IP Lysis Buffer (Thermo Fisher Scientific, 87787). […] Dynabeads protein A (Thermo Fisher Scientific, 10001D) was used in all co-immunoprecipitation.

[3] = target: T3, LILRB3 with deletion of amino acids 505-515 (human, UniProt O75022 24-631); assay: co-immunoprecipitation in 293T cells
T3 construct: Deletion mutant; not shown: hFc tag, per the general co-immunoprecipitation method
Text: as §1

[4] = target: FLAG-cFLIP (exogenous, expressed in 293T cells) (human, UniProt O15519 1-480); assay: co-immunoprecipitation of FLAG-cFLIP with hFc-tagged LILRB3 constructs in 293T cells (FIG. 5e)
Text: as §1

Sequence of FLAG-cFLIP (exogenous, expressed in 293T cells) (O15519 whole entry): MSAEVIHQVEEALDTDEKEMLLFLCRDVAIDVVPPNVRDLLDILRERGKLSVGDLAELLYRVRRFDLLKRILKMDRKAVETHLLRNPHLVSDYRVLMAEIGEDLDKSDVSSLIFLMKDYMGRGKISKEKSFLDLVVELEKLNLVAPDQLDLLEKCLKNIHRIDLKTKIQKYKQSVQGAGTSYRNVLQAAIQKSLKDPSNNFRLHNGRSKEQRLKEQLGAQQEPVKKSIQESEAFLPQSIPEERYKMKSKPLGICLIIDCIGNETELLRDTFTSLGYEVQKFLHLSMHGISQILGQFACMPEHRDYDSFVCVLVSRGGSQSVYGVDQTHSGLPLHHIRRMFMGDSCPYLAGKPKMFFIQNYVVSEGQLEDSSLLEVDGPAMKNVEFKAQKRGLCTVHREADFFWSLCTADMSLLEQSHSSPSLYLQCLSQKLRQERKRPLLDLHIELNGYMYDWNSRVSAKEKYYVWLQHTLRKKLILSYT

B1: anti-LILRB3 antibody #32 (antibody, V domains shown)
VH: QVQLVQSGAEVKKPGSSVKVSCKASGGTFSSYAISWVRQAPGQGLEWMGGIIPIFGTANYAQKFQGRVTITADESTSTAYMELSSLRSEDTAVYYCARGWNWFDPWGQGTMVIVSS
VL: QSVLTQPPSVSADPGQKVTISCSGSSSNIGKNYVSWYQQLPGTAPKLLIYDDNRRLSGTPDRFSGSKSGTSATLGITGLQTGDEADYYCGAWDSSLSAYVFGTGTTVTVL
notes: Fully human IgG; Tied to clone 'B3-32' only by the clone number; also called B3-32
binding result [1]: binds

B2: HA-TRAF2 (exogenous, expressed in 293T cells) (other, human, UniProt Q12933 1-501, looked up)
chain: MAAASVTPPGSLELLQPGFSKTLLGTKLEAKYLCSACRNVLRRPFQAQCGHRYCSFCLASILSSGPQNCAACVHEGIYEEGISILESSSAFPDNAARREVESLPAVCPSDGCTWKGTLKEYESCHEGRCPLMLTECPACKGLVRLGEKERHLEHECPERSLSCRHCRAPCCGADVKAHHEVCPKFPLTCDGCGKKKIPREKFQDHVKTCGKCRVPCRFHAIGCLETVEGEKQQEHEVQWLREHLAMLLSSVLEAKPLLGDQSHAGSELLQRCESLEKKTATFENIVCVLNREVERVAMTAEACSRQHRLDQDKIEALSSKVQQLERSIGLKDLAMADLEQKVLEMEASTYDGVFIWKISDFARKRQEAVAGRIPAIFSPAFYTSRYGYKMCLRIYLNGDGTGRGTHLSLFFVVMKGPNDALLRWPFNQKVTLMLLDQNNREHVIDAFRPDVTSSSFQRPVNDMNIASGCPLFCPVSKMEAKNSYVRDDAIFIKAIVDLTGL
notes: also called exogenous HA-TRAF2; not shown: HA tag
binding result [2]: no binding
binding result [3]: no binding

B3: anti-LILRB3 IgG #1 (antibody, V domains shown)
VH: EVQLVESGGGVVQPGRSLRLSCAASGFTFSSYGMHWVRQAPGKGLEWVAFIRYDGSNKYYADSVKGRFTISRDNSKNTLYLQMNSLRAEDTAVYYCAKAGFSGWYYYGMDVWGQGTMVTVSS
VL: DIVMTQSPSSLSASVGDRLTITCRASQSISTYLNWYQQKPGKAPKLLIYGASSLQSGVPSRFSGSGSGTDFTLTISSLQPEDFATYFCQQSYGLPLTFGGGTKVDIK
notes: Fully human IgG from scFv phage display; also called anti-LILRB3 #1; B3-1
binding result [1]: binds

B4: B3ICDhFc (LILRB3 intracellular domain fused to hFc at C-terminus) (Fc fusion)
chain: RRQRHSKHRTSDQRKTDFQRPAGAAETEPKDRGLLRRSSPAADVQEENLYAAVKDTQSEDRVELDSQSPHDEDPQAVTYAPVKHSSPRREMASPPSSLSGEFLDTKDRQVEEDRQMDTEAAASEASQDVTYAQLHSLTLRRKATEPPPSQEGEPPAEPSIYATLAIH
notes: domain: intracellular domain; also called B3ICD fused to human Fc; intracellular domain of LILRB3 alone; not shown: hFc (human Fc)
binding result [4]: no binding

B5: anti-LILRB3 IgG #26 (antibody, V domains shown)
VH: QVQMVESGGGLVKPGGSLRLSCAASGFTFSDHYLSWIRQAPGKGLEWVSYIDLSGSTVYYGDSVKGRFTISRDNARNSVYLQMNSLRAEDTAVYYCARGHYGLDVWGQGTMVTVSS
VL: NIQMTQSPSTLSASVGDRVTISCRASQSIGTWLAWYQQKPGKAPQLLIYKASSLHSGVPSRFSGSGSGTEFTLTISSLQPDDFATYYCQQYNLYSRTFGQGTKVEIK
notes: Fully human IgG; also called B3-26
binding result [1]: binds
